Laboratory results published in publication PMC3319151 (Journal of Molecular Biology, 2009).
Where no end group is shown, it is not given here. The star is where a group is joined. 5FAM = O=C1OC2(c3ccc(O)cc3Oc3cc(O)ccc32)c2ccc(C(=O)*)cc21

Assays:
[1] = target: WFHVEED peptide (synthetic construct); assay: fluorescence polarization; details: cited from earlier work
[2] = target: (FAM)-AWFHVEED peptide; assay: fluorescence polarisation
[3] = target: T1, GST-CA150 FF1-3 (human, UniProt O14776 661-845); assay: fluorescence polarization
T1 sequence: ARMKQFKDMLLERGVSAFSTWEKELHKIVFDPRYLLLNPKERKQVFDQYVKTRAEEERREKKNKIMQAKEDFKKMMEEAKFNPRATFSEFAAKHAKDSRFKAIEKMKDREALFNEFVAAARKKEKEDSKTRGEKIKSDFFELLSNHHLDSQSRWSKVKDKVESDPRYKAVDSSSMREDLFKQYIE

[4] = target: T2, CA150 FF1-3 wild-type (human, UniProt O14776 661-845); assay: fluorescence polarization
T2 sequence: T1 sequence

[5] = target: T3, CA150 FF1-3 (human CA150 residues 661-845), GST cleaved off (human, UniProt O14776 661-845); assay: fluorescence polarisation
T3 sequence: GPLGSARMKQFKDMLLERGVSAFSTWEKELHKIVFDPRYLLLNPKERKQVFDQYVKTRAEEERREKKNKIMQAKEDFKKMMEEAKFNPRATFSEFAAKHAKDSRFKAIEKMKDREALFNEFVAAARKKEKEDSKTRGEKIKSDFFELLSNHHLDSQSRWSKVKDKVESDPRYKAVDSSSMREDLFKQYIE

Q: Which Kd [1] does the source give for “CA150 (GST-FF1-3) FF1-3 (from UniProt O14776)” here?
A: 48 µM

Q: For GST alone, which Kd [2] is on record?
A: > 740 µM

B1: MATa1/MATalpha2 duplex of Ke et al. (dsDNA)
DNA 1: ACATGTAAAAATTTACATCA
DNA 2: TTGATGTAAATTTTTACATG
Q: For B1, which Kd [3] is on record?
A: 0.52 ± 0.06 µM

Q: And the Kd [4]?
A: 3.87 ± 0.31 µM

Q: For 5FAM-AWFHVEED [(FAM)-AWFHVEED peptide], which Kd [5] is on record?
A: > 400 µM
